B1: LC22F6 (protein)
light: DIVMTQSPLSLPVTPGEPASISCRSSQSLLHSNGFNYLDWYLQKPGQSPQLLIYLGSTRASGVPDRFSGSGSGTDFTLRISRVEAEDVGVYFCMQAVQTPFTFGPGTRLDIKRTVAAPSVFIFPPSDEQLKSGTASVVCLLNNFYPREAKVQWKVDNALQSGNSQESVTEQDSKDSTYSLSSTLTLSKADYEKHKVYACEVTHQGLSSPVTKSFNRGEC
B2: LC23F1 (protein)
light: DIVMTQTPLSSPVTLGQPASISCRSSQSLVHSDGNTYLSWLQQRPGQPPRLLIYKISNRFSGVPDRFSGSGAGTDFTLKISRVEAEDVGIYYCMQGLQTPLTFGGGTKVDLKRTVAAPSVFIFPPSDEQLKSGTASVVCLLNNFYPREAKVQWKVDNALQSGNSQESVTEQDSKDSTYSLSSTLTLSKADYEKHKVYACEVTHQGLSSPVTKSFNRGEC

Key:
[1] = target: rabies virus antibody (antigen), first of the two types used in the screening ELISA (AS 1) (rabies virus); test: ELISA, 150 µl culture supernatant
[2] = target: rabies virus antibody (antigen), second of the two types used in the screening ELISA (AS 2) (rabies virus); test: ELISA, 150 µl culture supernatant
[3] = target: rabies virus antibody (antigen), first of the two types used in the screening ELISA (AS 1) (rabies virus); test: ELISA, 10 ml culture cell breakage liquid
[4] = target: rabies virus antibody (antigen), second of the two types used in the screening ELISA (AS 2) (rabies virus); test: ELISA, 10 ml culture cell breakage liquid

Row | Binder | AS 1 (Antigen Specificity, ELISA signal) [1] | AS 2 (Antigen Specificity, ELISA signal) [2] | AS 1 (Antigen Specificity, ELISA signal) [3] | AS 2 (Antigen Specificity, ELISA signal) [4]
1 | B1 | 0.275 | 0.175 | 0.5 | 2.77
2 | B2 | 0.249 | 0.219 | 0.821 | 2.95
